Source: the supplement of paper PMC12042874
± gives the uncertainty stated by the source.

Assay: amyloid nucleation score (Sup35N fusion, yeast selection) (log enrichment); library NNK1; higher = more nucleation; inactive = no reads after selection
Method in brief: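 The nucleation score, computed with DiMSum, is the log enrichment of output over input reads, centred on the mode score of non-aggregating sequences. Sequences with under 100 input reads were dropped. Reads were generated by Illumina sequencing of plasmid inserts from psi-negative yeast with Sup35N fused to peptides of 20 random codons, induced with 100 μM copper sulfate for 24 hours and grown 7 days at 30°C on medium lacking adenine and uracil.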

In order of falling amyloid nucleation score:
1. WNSVVHINSVNYCV  6.732 ± 0.059
2. ICCGCRYFFSTTSV  6.7 ± 0.06
3. NCMAISGITVLNMSWNNLKI  6.612 ± 0.064
4. VGLVLKIHVYNYFMETAQQS  6.555 ± 0.053
5. LPMLLFAHITFNMLNDVSPN  5.94 ± 0.086
6. NICVFNEFKVYNAYTVYWGW  5.801 ± 0.054
7. LQVKNVYGACFVCAMMVAWE  5.18 ± 0.09
8. IVGLQAVENIRNSCICLFMK  4.5 ± 0.065
9. NLFVSYSTDNSSTFMWDSVR  4.44 ± 0.058
10. SGYLVSSELREFQ  4.28 ± 0.11
11. KIILPVSGVKINMQAWSRSH  4.07 ± 0.091
12. PMTVSNEFAPSILLSRALFW  3.99 ± 0.14
13. STCSGISFVCHSTIIIKVTF  3.92 ± 0.12
14. FGWLFVCEVSAAGPPTLIWT  3.11 ± 0.15
15. INVFNCCWRLIFVLEV  2.72 ± 0.14
16. IVDPWY  2.56 ± 0.12
17. ILCICY  2.48 ± 0.2
18. YLHWTQEDLRGNILGWSMWS  2.32 ± 0.16
19. TFVCAFRGY  2.19 ± 0.098
20. ASGKYNRLCIGFVWGCEQGM  2.12 ± 0.26
21. YRVVLAECTSGYWEDIYSHI  1.75 ± 0.16
22. RGDAIMAWGSVVRYIHYILY  1.51 ± 0.5
23. IYARNIRRLTRFPDLLDLVM  1.47 ± 0.17
24. GALCCLCRSNHYVLQCGVKC  1.47 ± 0.7
25. LYNVSSLGSANKSFLGRSS  1.39 ± 0.76
26. NLKRPNELWINIETFIRSLH  1.32 ± 0.38
27. CSGCYPRLCESMLNGNSGYV  1.31 ± 0.31
28. ATGSMGQSSSTGDASKLASF  1.3 ± 0.32
29. MFFLYCLARRVGKLMECRV  1.28 ± 0.46
30. IKCHYFDVCLNVWSLCYLAC  1.24 ± 0.46
31. TWTLL  1.18 ± 0.63
32. KANFFTLRSMFWGPMN  1.15 ± 0.64
33. YVCKIYFHDFDRNMGILEDH  1.13 ± 0.85
34. LNPLVLSCSGEIDSMFNV  1.11 ± 0.34
35. ICGRNTLCARRRTSRLVGIE  1.1 ± 0.97
36. IKVAN  1.1 ± 0.47
37. RFNSYEVVIRVWRDSMISEG  1.09 ± 0.78
38. FLQSIEGRSETGRMSRAISV  1.08 ± 0.93
39. ILMFISVFYCFCRKTRYLNR  1.01 ± 0.31
40. RVLSSTNHSAYHWIEKGSTF  1.01 ± 0.31
41. ERMSRLCSQSGARRKCGAGC  1.01 ± 0.64
42. IEYFCWFAILGKPFESGIGS  0.991 ± 0.51
43. FRSFGVR  0.924 ± 0.97
44. RVEVSGVLALANPLVPF  0.92 ± 0.6
45. MDSDRVRPDESSVGLN  0.915 ± 0.56
46. YKDFVGRTEFYRVGMFRLTE  0.912 ± 0.43
47. CYALNWCRLPALHSFFQCRK  0.853 ± 0.65
48. HDSLMRSGSFNTSVTVEY  0.843 ± 0.55
49. MWSLDGTKICNLRKVFGRSC  0.809 ± 0.37
50. ERHMYMSCWFTNY  0.777 ± 0.21
51. LCLKF  0.77 ± 0.97
52. VFHSMC  0.761 ± 0.39
53. WLNSEAWDYLATLGLSFNYS  0.761 ± 0.75
54. FVLTYDLMLLQSGFNSRL  0.756 ± 0.87
55. HSGGVTIQLCSKACVYSGAG  0.754 ± 0.19
56. AKLMGCYMQRSICITRVPFL  0.702 ± 0.51
57. SPTLARSVWFRCLCTANGRE  0.698 ± 0.93
58. KAEVRVRARELAEGMGARGR  0.693 ± 0.72
59. LYSIVVKYCYQYLSRACNYN  0.637 ± 0.36
60. TRSGYAHARSSAAQSFTL  0.622 ± 0.33
61. GPIRDKSELAYMLPFEVMYT  0.565 ± 0.67
62. ALEWHGQTYSFRIEI  0.537 ± 0.36
63. RCEVESIRNGLAKAGSVTMR  0.515 ± 0.38
64. YYNNC  0.501 ± 0.39
65. IETSKFRPINVKLVIYCCHG  0.499 ± 0.79
66. ASRAFSVVDYSGLLRGS  0.498 ± 0.61
67. KYEMRITVGRGYFSGRMHAC  0.494 ± 0.78
68. VMGFGTCVRKQCSNYLKGIE  0.476 ± 0.63
69. MVQNVWDVRYDEAAMTLVRH  0.461 ± 0.61
70. CWTSFYDC  0.448 ± 0.49
71. EFIKWRAIGENSYGKGDMDR  0.387 ± 1
72. GIIFGMKVGWK  0.385 ± 0.31
73. YCHSVVFV  0.352 ± 1
74. LFYTCRVDQGPVWGLLTKRR  0.344 ± 0.77
75. WLLNMENYWTVSTAGWSRWN  0.332 ± 0.46
76. GNLLVMVGNMRSIDKC  0.326 ± 0.3
77. HCAYRFASENEMKGG  0.321 ± 0.65
78. QIHFFAFRFIGMVYFPRIGD  0.318 ± 0.79
79. SRYYFHFELFVWR  0.291 ± 0.7
80. SNDCRMLWMIWKTGSACLDP  0.271 ± 0.43
81. NGMLFCT  0.267 ± 0.79
82. VSLFLYISLSLRIVRRYVRV  0.263 ± 0.27
83. GKSTCFSMKQECLAEREEEG  0.257 ± 0.81
84. SRCHQRTYEVIAEYDLSKTE  0.223 ± 0.52
85. IQYELMRMACSRNFIIAEFF  0.2 ± 0.72
86. ELKSAFCWRARLG  0.197 ± 0.49
87. KYVIGVNAMEWWPTTTAI  0.166 ± 1.6
88. ALFGERPCCRC  0.158 ± 0.28
89. CNWPDLDLSNRKWNPMKSML  0.146 ± 0.69
90. LFLCGGDCYGKFLLCPCLVS  0.144 ± 0.9
91. CSSVAS  0.113 ± 0.31
92. ITDVMCMGGSTCFGNSGYTN  0.108 ± 0.56
93. LTNFNAWR  0.098 ± 0.47
94. LYPNRAGGRLAGLGGMPYE  0.085 ± 0.44
95. SALNSSRGKFICSRRCHGEE  0.078 ± 0.23
96. CLYPVLQVPMCGNMAERQGV  0.074 ± 0.69
97. GDRVAEFQFPLSYTRPELSL  0.046 ± 0.72
98. KLNVFDLVNRAKVGHCGSSG  0.026 ± 0.51
99. NIVSALRYITPYYLAAYPIT  0.025 ± 0.36
100. ILVPLNQGEIWRNKIRYWI  0.019 ± 0.4
101. RIRWSVVVNV  -0.002 ± 0.29
102. PFCRSRHAGHSRSLQVEKFM  -0.004 ± 0.29
103. GPLSKGIFDRFMDPHRYFKY  -0.024 ± 0.61
104. DSRVLSDYLSSYLSLKYLLV  -0.031 ± 0.62
105. SLMKELKF  -0.034 ± 0.73
106. ALCYWNSTVD  -0.057 ± 0.41
107. FYRSLVVNM  -0.081 ± 0.96
108. PMQNSTPLFYSNAWSE  -0.096 ± 1.1
109. RKVITDKTLL  -0.099 ± 0.45
110. MFLIGFDGTYERSSLF  -0.106 ± 1.7
111. YNMREVLSCKF  -0.114 ± 0.59
112. ETHGYFVYVFVCGRWAGMK  -0.114 ± 0.28
113. VRHMWWVFPIFEISVRKCPV  -0.116 ± 1
114. VMYPRATLSQLRLKVTN  -0.116 ± 0.4
115. IKKEIRSVFGLSGTSVKGNN  -0.118 ± 0.74
116. LSWFMGLSYIKILYYCHIYD  -0.142 ± 1.1
117. GIVHAPCDFHTSSFWW  -0.147 ± 0.84
118. QISVKTMLLSLTFRMFIYWN  -0.168 ± 0.38
119. RRSGTLDGSGSGSCVRLPPN  -0.172 ± 0.5
120. RIWDCRYCKG  -0.184 ± 0.29
121. VGRGSGPRAQYMWLSKTEAG  -0.2 ± 0.47
122. ADLRVFHYRYFGS  -0.223 ± 0.49
123. DVVPSSGFVFMIRTDTLSHN  -0.265 ± 1.2
124. RIWPRSMYRPSSGCVET  -0.281 ± 0.52
125. LSPRSSA  -0.322 ± 0.65
126. FWISRYVLQKDWKGWICTEL  -0.338 ± 0.83
127. VSVFCTSFWASTKLYWTVSE  -0.351 ± 0.6
128. KSQLRQSTYPS  -0.358 ± 0.82
129. AWFGYISYWNEFFLWDCFWS  -0.366 ± 0.4
130. LQSYWRYRVKRFV  -0.39 ± 0.39
131. WYRVR  -0.421 ± 1.1
132. TLWTWTSYRVVLYSSSVKLG  -0.451 ± 0.32
133. IYCYSYYLCSFLCVYDISKG  -0.457 ± 0.79
134. FLWSYWPCSVGTEMTSQVRI  -0.459 ± 0.82
135. QAELYPDQNRGCVGLVVPAD  -0.544 ± 0.54
136. GKFVFWWVRSVYDQMAVPGM  -0.546 ± 1.1
137. KNDGYIH  -0.561 ± 1.4
138. LRCYEDLFVGLAHGRMRYTG  -0.561 ± 1.7
139. RTGSAASG  -0.564 ± 0.38
140. VFWWT  -0.575 ± 0.29
141. MEWLYRNTATFCR  -0.657 ± 1.7
142. PKNGGQTMAYK  -0.665 ± 0.6
143. RNYLIDV  -0.668 ± 0.4
144. LLCICWLALICCLNSELGSQ  -0.675 ± 1
145. IYKVEFLTCFLDEGGWSPKV  -0.692 ± 0.95
146. WAVRIVHMRVFFGLPVDW  -0.697 ± 0.58
147. WSPTVAMLDGAVRGVAPATH  -0.7 ± 0.57
148. PSIEEEFSWVPAVFFFTWDM  -0.706 ± 1.2
149. KAFIQTVLRNQVSWLANTPH  -0.745 ± 0.98
150. SALIILMHVV  -0.761 ± 1.2
151. RQTGVYCKFNRSRDSILLSH  -0.782 ± 0.86
152. FISNIFKMKMATQSGGLGVR  -0.789 ± 0.71
153. CSYQNCLVN  -0.795 ± 0.29
154. IRKGSFPD  -0.841 ± 0.82
155. YGTVTGEIIYFLSYLVIMRM  -0.848 ± 0.56
156. YSRIARLDVKRVGHEPDVRL  -0.921 ± 2.4
157. MRLSHAVTYRN  -0.987 ± 1.7
158. AVSNLATEGRVYLKVRLESW  -0.991 ± 2.4
159. AEKSFWHSSNPFIALPRTHR  -1 ± 0.93
160. NVYFLPIMA  -1.06 ± 0.54
161. ARQGASLGVK  -1.11 ± 1.5
162. VVYHVFFWELTNAKHNLPML  -1.17 ± 2.4
163. YGINNLPI  -1.23 ± 0.71
164. QTSSFFCSV  -2.12 ± 2.4

For FERSW, the amyloid nucleation score was “inactive”.
With IHCDIALNRSTWLYFPFVLA the amyloid nucleation score was “inactive”.
In the case of HFCHFVGLNPVQKRRVVPWG, the amyloid nucleation score is reported as “inactive”.
In the case of CLKLDNMTRLVTNGTLGSAS, the amyloid nucleation score is reported as “inactive”.
With NDSICTYSMAWGRERSGVCY the amyloid nucleation score was “inactive”.
In the case of CFGSSRVSCEYTDDRDDCGM, the amyloid nucleation score is reported as “inactive”.
In the case of SSKIRLFRDNTQYNGRWGSY, the amyloid nucleation score is reported as “inactive”.
With MIHVFLGETYLVIFAVNFST the amyloid nucleation score was “inactive”.
With EQQLQRM the amyloid nucleation score was “inactive”.
